Assay results from the RNAGym collection of RNA variant scans (doi:10.7554/elife.80360).

B1: Hammerhead Ribozyme (parent)
chain: ACCGGAUGUGCUUUCCGGUCUGAUGAGUCCGUGAGGACGAAACAG

Variants of: B1
Assay: self-cleavage, relative activity (ratio to wild type); higher = more cleavage; co-transcriptional

Row | Variant | self-cleavage
1 | ACCGGAUGUGCUUUCCGGUCUGAUGAGUCCGUGCGGACAAAACAG [A34C G39A] | 0.288
2 | ACCGGAUGUGCUUUCCGGUCUGAUGAGUCCGUGCGGACCAAACAG [A34C G39C] | 0.32
3 | ACCGGAUGUGCUUUCCGGUCUGAUGAGUCCGUGCGGACUAAACAG [A34C G39U] | 0.404
4 | ACCGGAUGUGCUUUCCGGUCUGAUGAGUCCGUGCGGACGAAACAA [A34C G45A] | 0.524
5 | ACCGGAUGUGCUUUCCGGUCUGAUGAGUCCGUGCGGACGAAACAC [A34C G45C] | 0.441
6 | ACCGGAUGUGCUUUCCGGUCUGAUGAGUCCGUGCGGACGAAACAU [A34C G45U] | 0.515
7 | ACCGGAUGUGCUUUCCGGUCUGAUGAGUCCGUGGGGACGAAACAG [A34G] | 0.902
8 | ACCGGAUGUGCUUUCCGGUCUGAUGAGUCCGUGGGGCCGAAACAG [A34G A37C] | 0.649
9 | ACCGGAUGUGCUUUCCGGUCUGAUGAGUCCGUGGGGGCGAAACAG [A34G A37G] | 0.649
10 | ACCGGAUGUGCUUUCCGGUCUGAUGAGUCCGUGGGGUCGAAACAG [A34G A37U] | 0.47
11 | ACCGGAUGUGCUUUCCGGUCUGAUGAGUCCGUGGGGACGCAACAG [A34G A40C] | 0.44
12 | ACCGGAUGUGCUUUCCGGUCUGAUGAGUCCGUGGGGACGGAACAG [A34G A40G] | 0.345
13 | ACCGGAUGUGCUUUCCGGUCUGAUGAGUCCGUGGGGACGUAACAG [A34G A40U] | 0.334
14 | ACCGGAUGUGCUUUCCGGUCUGAUGAGUCCGUGGGGACGACACAG [A34G A41C] | 0.302
15 | ACCGGAUGUGCUUUCCGGUCUGAUGAGUCCGUGGGGACGAGACAG [A34G A41G] | 0.339
16 | ACCGGAUGUGCUUUCCGGUCUGAUGAGUCCGUGGGGACGAUACAG [A34G A41U] | 0.284
17 | ACCGGAUGUGCUUUCCGGUCUGAUGAGUCCGUGGGGACGAACCAG [A34G A42C] | 0.294
18 | ACCGGAUGUGCUUUCCGGUCUGAUGAGUCCGUGGGGACGAAGCAG [A34G A42G] | 0.264
19 | ACCGGAUGUGCUUUCCGGUCUGAUGAGUCCGUGGGGACGAAUCAG [A34G A42U] | 0.329

Row | Variant | self-cleavage
20 | ACCGGAUGUGCUUUCCGGUCUGAUGAGUCCGUGGGGACGAAACCG [A34G A44C] | 0.41
21 | ACCGGAUGUGCUUUCCGGUCUGAUGAGUCCGUGGGGACGAAACGG [A34G A44G] | 1.23
22 | ACCGGAUGUGCUUUCCGGUCUGAUGAGUCCGUGGGGACGAAACUG [A34G A44U] | 0.526
23 | ACCGGAUGUGCUUUCCGGUCUGAUGAGUCCGUGGGGAAGAAACAG [A34G C38A] | 0.349
24 | ACCGGAUGUGCUUUCCGGUCUGAUGAGUCCGUGGGGAGGAAACAG [A34G C38G] | 0.598
25 | ACCGGAUGUGCUUUCCGGUCUGAUGAGUCCGUGGGGAUGAAACAG [A34G C38U] | 1.13
26 | ACCGGAUGUGCUUUCCGGUCUGAUGAGUCCGUGGGGACGAAAAAG [A34G C43A] | 0.32
27 | ACCGGAUGUGCUUUCCGGUCUGAUGAGUCCGUGGGGACGAAAGAG [A34G C43G] | 0.471
28 | ACCGGAUGUGCUUUCCGGUCUGAUGAGUCCGUGGGGACGAAAUAG [A34G C43U] | 0.393
29 | ACCGGAUGUGCUUUCCGGUCUGAUGAGUCCGUGGAGACGAAACAG [A34G G35A] | 0.675
30 | ACCGGAUGUGCUUUCCGGUCUGAUGAGUCCGUGGCGACGAAACAG [A34G G35C] | 0.771
31 | ACCGGAUGUGCUUUCCGGUCUGAUGAGUCCGUGGUGACGAAACAG [A34G G35U] | 0.847
32 | ACCGGAUGUGCUUUCCGGUCUGAUGAGUCCGUGGGAACGAAACAG [A34G G36A] | 0.51
33 | ACCGGAUGUGCUUUCCGGUCUGAUGAGUCCGUGGGCACGAAACAG [A34G G36C] | 0.276
34 | ACCGGAUGUGCUUUCCGGUCUGAUGAGUCCGUGGGUACGAAACAG [A34G G36U] | 0.419
35 | ACCGGAUGUGCUUUCCGGUCUGAUGAGUCCGUGGGGACAAAACAG [A34G G39A] | 0.288
36 | ACCGGAUGUGCUUUCCGGUCUGAUGAGUCCGUGGGGACCAAACAG [A34G G39C] | 0.338
37 | ACCGGAUGUGCUUUCCGGUCUGAUGAGUCCGUGGGGACUAAACAG [A34G G39U] | 0.308
38 | ACCGGAUGUGCUUUCCGGUCUGAUGAGUCCGUGGGGACGAAACAA [A34G G45A] | 0.589

Row | Variant | self-cleavage
39 | ACCGGAUGUGCUUUCCGGUCUGAUGAGUCCGUGGGGACGAAACAC [A34G G45C] | 0.551
40 | ACCGGAUGUGCUUUCCGGUCUGAUGAGUCCGUGGGGACGAAACAU [A34G G45U] | 0.544
41 | ACCGGAUGUGCUUUCCGGUCUGAUGAGUCCGUGUGGACGAAACAG [A34U] | 0.926
42 | ACCGGAUGUGCUUUCCGGUCUGAUGAGUCCGUGUGGCCGAAACAG [A34U A37C] | 0.572
43 | ACCGGAUGUGCUUUCCGGUCUGAUGAGUCCGUGUGGGCGAAACAG [A34U A37G] | 0.757
44 | ACCGGAUGUGCUUUCCGGUCUGAUGAGUCCGUGUGGUCGAAACAG [A34U A37U] | 0.412
45 | ACCGGAUGUGCUUUCCGGUCUGAUGAGUCCGUGUGGACGCAACAG [A34U A40C] | 0.404
46 | ACCGGAUGUGCUUUCCGGUCUGAUGAGUCCGUGUGGACGGAACAG [A34U A40G] | 0.304
47 | ACCGGAUGUGCUUUCCGGUCUGAUGAGUCCGUGUGGACGUAACAG [A34U A40U] | 0.305
48 | ACCGGAUGUGCUUUCCGGUCUGAUGAGUCCGUGUGGACGACACAG [A34U A41C] | 0.289
49 | ACCGGAUGUGCUUUCCGGUCUGAUGAGUCCGUGUGGACGAGACAG [A34U A41G] | 0.305
50 | ACCGGAUGUGCUUUCCGGUCUGAUGAGUCCGUGUGGACGAUACAG [A34U A41U] | 0.281
51 | ACCGGAUGUGCUUUCCGGUCUGAUGAGUCCGUGUGGACGAACCAG [A34U A42C] | 0.3
52 | ACCGGAUGUGCUUUCCGGUCUGAUGAGUCCGUGUGGACGAAGCAG [A34U A42G] | 0.258
53 | ACCGGAUGUGCUUUCCGGUCUGAUGAGUCCGUGUGGACGAAUCAG [A34U A42U] | 0.306
54 | ACCGGAUGUGCUUUCCGGUCUGAUGAGUCCGUGUGGACGAAACCG [A34U A44C] | 0.447
55 | ACCGGAUGUGCUUUCCGGUCUGAUGAGUCCGUGUGGACGAAACGG [A34U A44G] | 1.01
56 | ACCGGAUGUGCUUUCCGGUCUGAUGAGUCCGUGUGGACGAAACUG [A34U A44U] | 0.437
57 | ACCGGAUGUGCUUUCCGGUCUGAUGAGUCCGUGUGGAAGAAACAG [A34U C38A] | 0.409
